Among the data in paper PMC2588538, “Structure of Reovirus σ1 in Complex with Its Receptor Junctional Adhesion Molecule-A” (PLoS Pathogens, 2008) are response values, retold here.

B1: σ1 of reovirus strain rsT3D-σ1T249I (parent), on purified virions [mammalian orthoreovirus, strain type 3 Dearing GST-JAM-A ectodomain fusion protein [not stated] (parent)
chain 1: MDPRLREEVVRLIIALTSDNGASLSKGLESRVSALEKTSQIHSDTILRITQGLDDANKRIIALEQSRDDLVASVSDAQLAISRLESSIGALQTVVNGLDSSVTQLGARVGQLETGLAELRVDHDNLVARVDTAERNIGSLTTELSTLTLRVTSIQADFESRISTLERTAVTSAGAPLSIRNNRMTMGLNDGLTLSGNNLAIRLPGNTGLNIQNGGLQFRFNTDQFQIVNNNLTLKTTVFDSINSRIGAIEQSYVASAVTPLRLNSSTKVLDMLIDSSTLEINSSGQLTVRSTSPNLRYPIADVSGGIGMSPNYRFRQSMWIGIVSYSGSGLNWRVQVNSDIFIVDDYIHICLPAFDGFSIADGGDLSLNFVTGLLPPLLTGDTEPAFHNDVVTYGAQTVAIGLSSGGAPQYMSKNLWVEQWQDGVLRLRVEGGGSITHSNSKWPAMTVSYPRSFT
chain 2: SVTVHSSEPEVRIPENNPVKLSCAYSGFSSPRVEWKFDQGDTTRLVCYNNKITASYEDRVTFLPTGITFKSVTREDTGTYTCMVSEEGGNSYGEVKVKLIVLVPPSKPTVNIPSSATIGNRAVLTCSEQDGSPPSEYTWFKDGIVMPTNPKSTRAFSNSSYVLNPTTGELVFDPLSASDTGEYSCEARNGYGTPMTSNAVRMEAVERNVGV

The assay covers variants of B1. Kind of assay: SPR. Particulars: with GST-JAM-A ectodomain fusion protein, GST-JAM-A captured on biosensor surface, read off a plot.
Where [1] appears, read: 6×1012 (green) particles/ml virus, parent: 62.
Setting [2] is: 8×1012 (orange) particles/ml virus, parent: 98.
Setting [3] is: 1013 (red) particles/ml virus, parent: 205.

With chain 1 G381A, the response was determined as 17 RU under setting [1], 28 RU under setting [2] and 36 RU under setting [3].
The matching figures for chain 1 E384A: 140 RU, 280 RU and 460 RU.
